Holding throughout (test): cell-based or functional assay
One experiment addresses T1, human DR3 I43N/L45V (human, UniProt Q93038 25-417).
T1 chain: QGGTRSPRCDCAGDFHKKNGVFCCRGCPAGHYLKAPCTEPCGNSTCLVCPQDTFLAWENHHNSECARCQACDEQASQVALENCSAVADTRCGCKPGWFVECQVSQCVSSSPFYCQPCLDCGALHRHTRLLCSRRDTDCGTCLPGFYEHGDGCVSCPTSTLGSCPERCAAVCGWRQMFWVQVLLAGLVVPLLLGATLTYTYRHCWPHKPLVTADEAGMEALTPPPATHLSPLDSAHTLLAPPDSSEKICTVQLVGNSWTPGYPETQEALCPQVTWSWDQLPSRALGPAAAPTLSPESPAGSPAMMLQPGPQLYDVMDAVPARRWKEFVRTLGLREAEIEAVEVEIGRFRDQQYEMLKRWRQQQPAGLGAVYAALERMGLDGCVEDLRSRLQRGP

The target of a further experiment is T2, human DR3 R29Q (human, UniProt Q93038 25-417).
T2 sequence: T1 chain with R5Q, N19I, V21L

The next experiment has as its target T3, human DR3 I43N (human, UniProt Q93038 25-417).
T3 sequence: T1 chain with V21L

Experiment [1] concerns the target T4, marmoset DR3 (transiently expressed on HEK293 cells) (marmoset, UniProt U3ENN5 27-418).
T4 sequence: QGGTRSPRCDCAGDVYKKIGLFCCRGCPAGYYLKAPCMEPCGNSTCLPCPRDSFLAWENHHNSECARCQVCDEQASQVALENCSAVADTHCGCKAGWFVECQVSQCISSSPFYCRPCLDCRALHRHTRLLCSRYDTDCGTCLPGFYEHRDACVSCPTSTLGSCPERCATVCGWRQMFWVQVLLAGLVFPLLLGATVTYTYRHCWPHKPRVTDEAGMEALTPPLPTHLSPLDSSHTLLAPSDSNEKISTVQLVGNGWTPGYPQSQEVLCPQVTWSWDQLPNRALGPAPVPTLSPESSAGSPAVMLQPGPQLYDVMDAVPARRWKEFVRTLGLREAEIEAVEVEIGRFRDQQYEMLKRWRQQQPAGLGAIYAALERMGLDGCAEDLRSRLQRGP

For experiment [2], the target named is T5, cynomolgus DR3 (on HEK293 reporter cells) (cynomolgus, UniProt A0A2K5WJ09 98-464).
T5 sequence: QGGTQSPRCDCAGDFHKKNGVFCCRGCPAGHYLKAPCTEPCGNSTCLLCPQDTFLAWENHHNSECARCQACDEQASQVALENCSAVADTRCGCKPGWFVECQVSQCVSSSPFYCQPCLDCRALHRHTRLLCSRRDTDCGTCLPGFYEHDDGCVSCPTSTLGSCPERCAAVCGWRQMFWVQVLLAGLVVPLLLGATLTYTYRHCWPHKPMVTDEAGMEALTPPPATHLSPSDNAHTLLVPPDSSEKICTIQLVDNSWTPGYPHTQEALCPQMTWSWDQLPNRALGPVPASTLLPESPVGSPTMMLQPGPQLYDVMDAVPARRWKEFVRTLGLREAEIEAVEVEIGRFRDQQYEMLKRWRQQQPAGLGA

Experiment [3] has as its target T6, human DR3 (full length, on cells) (human, UniProt Q93038 25-417).
T6 sequence: T1 chain with N19I, V21L

The target of experiment [4] is T5, cynomolgus DR3 (on HEK293 reporter …). The source holds these as a separate data set.

Changes are numbered by the printed parent chain. Names and notes keep the numbering of the source.

B1: 0228 (humanized Fab of 27F44, IgG4, hz0072VH S49A / hz0072VL) (Fab, V domains shown)
VH: EVQLVESGGGLVQPGGSLRLSCAASGFTFSNYDMSWVRQATGKGLEWVAAFSSDGYTFYPGSVKGRFTISRENAKNSLYLQMNSLRAGDTAVYYCARHADYANYPVMDYWGQGTLVTVSS
VL: DIQMTQSPSSLSASVGDRVTITCRASKSVSTSGYSYMHWYQQKPGKAPKLLIYLASNLESGVPSRFSGSGSGTDFTLTISSLQPEDFATYYCQHSRELPLTFGGGTKVEIKR
notes: IgG4-Cys, hz (humanized IgG4 Fab with the hinge cysteine kept)
Broadly, the IC50 is the midpoint of a concentration-inhibition curve. A higher IC50 goes with a need for much substance. On to B1, for which the “IC50 of Fab upon stimulation by TL1A, transient reporter” value stood at 149 nM with human DR3 I43N/L45V, 0.372 nM with human DR3 R29Q and 68 nM in the experiment with human DR3 I43N. Besides, the “IC50 at 40 ng/ml TL1A, transient reporter HEK293” value in experiment [1] was 0.549 nM; in experiment [2] it was 73 nM; in experiment [3], 0.355 nM. Besides, in experiment [4], the “IC50 at 40 ng/ml TL1A, Lyda20 reporter cells” value was 628 nM.

The values above are taken from patent US20170305994A1 (Novo Nordisk, published 2017).
